Measurements published in US20180326082A1 (Sanofi, published 2018).

B1: 40 kD monoSAM PEGylated rhTSH (ligand)
chain 1: not shown
chain 2: FCIPTEYTMHIERRECAYCLTINTTICAGYCMTRDINGKLFLPKYALSQDVCTYRDFIYRTVEIPGCPLHVAPYFSYPVALSCKCGKCNTDYSDCIHEAIKTNYCTKPQKSY
modifications: see alpha chain; glycan at ASN23 is a possible PEG site; one 40 kD aminoxy PEG per protein on periodate-oxidized sialic acid of an N-linked glycan (ASN52 or ASN78 of alpha, or ASN23 of beta); 58% of the conjugate modified on the alpha subunit
notes: Sialic acid-mediated (SAM) monoPEGylation of rhTSH; also called 40 kD SAM; mono-40 kDa aminoxy PEG-TSH (SAM PEGylation)
B2: 40 kD N-terminal mono-PEGylated rhTSH (ligand)
chain 1: not shown
chain 2: B1 chain 2
modifications: see alpha chain; one 40 kD aldehyde PEG per protein at an N-terminus (reductive amination); which subunit is not stated
B3: 40 kD Lysine mono-PEGylated rhTSH (ligand)
chain 1: not shown
chain 2: B1 chain 2
modifications: see alpha chain; one 40 kDa NHS PEG per protein on a lysine; which lysine and subunit are not stated
notes: SEC fraction of the mono-PEGylated species; also called mono-40 kDa NHS PEG-TSH (Lysine PEGylation)
B4: 10 kD multiSAM PEGylated rhTSH (ligand)
chain 1: not shown
chain 2: B1 chain 2
modifications: see alpha chain; glycan at ASN23 is a possible PEG site; more than one 10 kD aminoxy PEG per protein on periodate-oxidized sialic acid of the N-linked glycans (ASN52, ASN78 of alpha; ASN23 of beta); split between sites not stated
B5: 40 kD GAM- PEGylated rhTSH (ligand)
chain 1: not shown
chain 2: B1 chain 2
modifications: see alpha chain; glycan at ASN23 is a possible PEG site; one 40 kD aminoxy PEG per protein on galactose oxidase-oxidized galactose of an N-linked glycan (ASN52 or ASN78 of alpha, or ASN23 of beta); 77% of the conjugate modified on the alpha subunit
B6: 20 kD monoSAM PEGylated rhTSH (ligand)
chain 1: not shown
chain 2: B1 chain 2
modifications: see alpha chain; glycan at ASN23 is a possible PEG site; one 20 kD aminoxy PEG per protein on periodate-oxidized sialic acid of an N-linked glycan (ASN52 or ASN78 of alpha, or ASN23 of beta)
notes: Sialic acid-mediated (SAM) monoPEGylation of rhTSH; also called 20 kD SAM
B7: 20 kD GAM+ PEGylated rhTSH (ligand)
chain 1: not shown
chain 2: B1 chain 2
modifications: see alpha chain; glycan at ASN23 is a possible PEG site; sialic acid removed with neuraminidase; one 20 kD aminoxy PEG per protein on galactose oxidase-oxidized galactose of an N-linked glycan (ASN52 or ASN78 of alpha, or ASN23 of beta)
B8: recombinant human TSH (rhTSH), THYROGEN Thyroid Stimulating Hormone (ligand)
chain 1: not shown
chain 2: B1 chain 2
modifications: N-linked carbohydrate chain at ASN23; N-linked carbohydrate chains at ASN52 and ASN78
notes: Heterodimer of alpha and beta subunit; also called TSH control; control TSH, starting material
B9: 10 kD monoSAM PEGylated rhTSH (ligand)
chain 1: not shown
chain 2: B1 chain 2
modifications: see alpha chain; glycan at ASN23 is a possible PEG site; one 10 kD aminoxy PEG per protein on periodate-oxidized sialic acid of an N-linked glycan (ASN52 or ASN78 of alpha, or ASN23 of beta)
notes: Sialic acid-mediated (SAM) monoPEGylation of rhTSH; also called 10 kD SAM
B10: 40 kD GAM+ PEGylated rhTSH (ligand)
chain 1: not shown
chain 2: B1 chain 2
modifications: see alpha chain; glycan at ASN23 is a possible PEG site; sialic acid removed with neuraminidase; one 40 kD aminoxy PEG per protein on galactose oxidase-oxidized galactose of an N-linked glycan (ASN52 or ASN78 of alpha, or ASN23 of beta); 66% of the conjugate modified on the alpha subunit
B11: 20 kD GAM- PEGylated rhTSH (ligand)
chain 1: not shown
chain 2: B1 chain 2
modifications: see alpha chain; glycan at ASN23 is a possible PEG site; one 20 kD aminoxy PEG per protein on galactose oxidase-oxidized galactose of an N-linked glycan (ASN52 or ASN78 of alpha, or ASN23 of beta)
B12: 40 kD linear PEG G22C rhTSH (ligand)
chain 1: not shown
chain 2: B1 chain 2
modifications: 40 kD linear cysteine-reactive PEG on Cys22
notes: also called 40 kD linear G22C; 40 kD G22C
B13: 60 kD 2-arm PEG G22C rhTSH (ligand)
chain 1: not shown
chain 2: B1 chain 2
modifications: 60 kD 2-arm cysteine-reactive PEG on Cys22
B14: 40 kD 4-arm PEG G22C rhTSH (ligand)
chain 1: not shown
chain 2: B1 chain 2
modifications: 40 kD 4-arm cysteine-reactive PEG on Cys22
B15: G22C rhTSH (ligand)
chain 1: not shown
chain 2: B1 chain 2
modifications: introduced cysteine found capped after expression and purification
notes: Cysteine mutant without PEG, produced from CHO cells; also called TSH G22C(alpha); G22C(a)
B16: 60 kD 4-arm PEG G22C rhTSH (ligand)
chain 1: not shown
chain 2: B1 chain 2
modifications: 60 kD 4-arm cysteine-reactive PEG on Cys22
B17: 50 kD 3-arm PEG G22C rhTSH (ligand)
chain 1: not shown
chain 2: B1 chain 2
modifications: 50 kD 3-arm cysteine-reactive PEG on Cys22
B18: 40 kD 2-arm PEG G22C rhTSH (ligand)
chain 1: not shown
chain 2: B1 chain 2
modifications: 40 kD 2-arm cysteine-reactive PEG on Cys22

Target: T1, porcine TSH receptor (porcine, UniProt Q8SPP9 22-764, limits assumed)
T1 construct: Bought, coated on kit plates; the construct is not described; also called immobilized porcine TSH receptor
T1 sequence (Q8SPP9 22-764 limits assumed): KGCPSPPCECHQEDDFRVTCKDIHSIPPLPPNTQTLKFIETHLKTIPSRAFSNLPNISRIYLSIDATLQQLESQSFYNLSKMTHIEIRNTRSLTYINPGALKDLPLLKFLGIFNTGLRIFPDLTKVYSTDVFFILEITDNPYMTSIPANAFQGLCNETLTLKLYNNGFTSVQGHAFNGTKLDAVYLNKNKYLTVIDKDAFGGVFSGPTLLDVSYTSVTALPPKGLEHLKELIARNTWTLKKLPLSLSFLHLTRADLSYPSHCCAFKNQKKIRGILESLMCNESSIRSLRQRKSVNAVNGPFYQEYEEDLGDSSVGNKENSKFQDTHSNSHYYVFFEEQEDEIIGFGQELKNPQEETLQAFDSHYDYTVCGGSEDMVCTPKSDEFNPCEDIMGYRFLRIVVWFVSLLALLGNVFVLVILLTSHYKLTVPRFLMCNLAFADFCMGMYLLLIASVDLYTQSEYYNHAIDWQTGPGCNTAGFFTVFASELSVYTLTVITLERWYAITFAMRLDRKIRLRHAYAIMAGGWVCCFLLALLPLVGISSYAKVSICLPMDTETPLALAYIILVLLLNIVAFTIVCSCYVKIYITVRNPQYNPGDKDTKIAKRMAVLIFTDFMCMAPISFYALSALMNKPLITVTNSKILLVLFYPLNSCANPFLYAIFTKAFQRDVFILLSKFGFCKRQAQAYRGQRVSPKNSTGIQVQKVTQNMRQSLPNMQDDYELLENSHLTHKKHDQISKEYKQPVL
Test: competition ELISA; displacement of biotinylated rhTSH from immobilized porcine TSH receptor
Experimental: (§1) Purified PEGylated conjugates were analyzed by in vitro porcine TSH receptor binding assay using the TSH Receptor Autoantibody 2nd Generation ELISA kit from RSR Limited (Kronus, Star, Id.). Instead of using the biotinylated human monoclonal autoantibody to the TSH receptor provided by the kit, we biotinylated Thyrogen® (rhTSH) to use for competitive inhibition of binding to TSH receptor. Binding of biotinylated rhTSH to immobilized porcine TSH receptor was inhibited by either rhTSH control or PEGylated rhTSH conjugates and IC₅₀ values were measured.
(§2) Thyrogen® was biotinylated with 1.7 to 1.8 biotins per protein using the ChromaLink™ Biotin Labeling Reagent according to the manufacturer's protocol (QED Bioscience Inc., San Diego, Calif.) and buffer exchanged into 50 mM sodium phosphate, 150 mM sodium chloride pH 7.0 with a Zeba™ Desalt Spin Column (Thermo Scientific, Rockford, Ill.). In vitro measurement of receptor binding was performed by competition of biotinylated Thyrogen® and PEG-rhTSH conjugate for binding to porcine TSH receptor immobilized onto 96-well plates supplied with the TSH Receptor Autoantibody 2nd Generation ELISA kit from RSR Limited (Kronus, Star, Id.). PEG-rhTSH conjugates were serially diluted 1:5 from 16 μM to 41 pM in assay buffer (100 mM HEPES pH 7.5, 20 mM EDTA, 1% BSA, 0.5% Triton X-100) and mixed 1:1 with biotinylated Thyrogen® diluted 1000-fold in assay buffer. The mixture was added to each receptor-coated well and incubated at 25° C. for 25 minutes. Unbound rhTSH was washed away and streptavidin peroxidase was added at 25° C. for 20 minutes according to the RSR Limited ELISA protocol to determine the amount of biotinylated Thyrogen® bound to the plate. The plate was then washed three times to remove excess unbound streptavidin peroxidase and then tetramethylbenzidine (TMB) was added to each well and incubated in the dark at 25° C. for 30 minutes. The reaction which was quenched with 0.5M sulfuric acid stop buffer and the absorbance of each well was read at 450 nm using a SpectraMax® 340pc plate reader (Molecular Devices, Sunnyvale, Calif.). The data was fit using a sigmoidal dose response equation with GraphPad Prism software to generate IC₅₀ values.

Binder | IC50 [µM] | fold change (IC50 against rhTSH) [fold]
B1 | 0.196 | 5.3
B2 | 0.397 | 10.8
B3 | 0.876 | 31.2
B4 | 0.138 | 3.8
B5 | 0.294 | 8
B6 | 0.0923 | 2.5
B7 | 0.0817 | 2.2
B8 | 0.0367 | 1
B9 | 0.0781 | 2.1
B10 | 0.133 | 3.6
B11 | 0.101 | 2.7

Target: T1, porcine TSH receptor
Test: as above
Remark: another data set of the same source
Experimental: as §1, §2

Binder | IC50 [µM] | fold change (IC50 against rhTSH) [fold]
B2 | 0.319 | 11.4
B3 | 0.876 | 31.2
B8 | 0.028 | 1
B12 | 0.248 | 8.9
B13 | 11.3 | 404
B14 | 0.743 | 26.5
B15 | 0.0416 | 1.5
B16 | 4020 | 144000
B17 | 0.281 | 10
B18 | 0.417 | 14.9

Target: T1, porcine TSH receptor
Test: in vitro TSH receptor binding assay (competition ELISA)

Binder | fold decrease of in vitro TSH receptor binding affinity, compared to the rhTSH control [fold]
B2 | 11.1
